Assay results as given in patent publication US20140275487A1 (VIB VZW, published 2014).

B1: Nanobody 35 (CA4435) (VHH)
VHH: QVQLQESGGGLVQPGGSLRLSCAASGFTFSNYKMNWVRQAPGKGLEWVSDISQSGASISYTGSVKGRFTISRDNAKNTLYLQMNSLKPEDTAVYYCARCPAPFTRDCFDVTSTTYAYRGQGTQVTVSS
notes: Llama VHH raised against the BS2G cross-linked β2AR:Gs:BI167107 complex; expressed in E. coli periplasm; also called Nb35; NB35
B2: Nanobody 33 (CA4433) (VHH)
VHH: QVQLQESGGGLVQPGGSLRLSCAASGFTFSNYVMNWVRQAPGKGLEWVSDISNGGGTTSYASSVKGRFTISRDNAKNTLYLQMNGLKPADTAVYYCARCPAPFTNDCMDITSTTYAYRGQGTQVTVSS
notes: Tested as periplasmic extract in ELISA; also called Nb33
B3: Nanobody 36 (CA4436) (VHH)
VHH: QVQLQESGGGSVQAGGSLRLSCTVSGTIFSVTVMGWYRQAPGKQRELVAGFTNTRNTNYVDSVKGRFTISKDSAKNTMYLQMNSLKPEDTAVYYCNVRRWGGTNWNDYWGQGTQVTVSS
notes: also called Nb36
B4: Nanobody 37 (CA4437) (VHH)
VHH: QVQLQESGGGFVQAGGSLRLSCAASGSIFSKNTMAWFRQAPGKERELVAASPTGGSTAYKDSVKGRFTISRDSAKNTVLLQMNVLKPEDTAVYYCHLRQNNRGSWFHYWGQGTQVTVSS
notes: also called Nb37
B5: Nanobody 40 (CA4440) (VHH)
VHH: QVQLQESGGGLVQAGGSLRLSCAVSGTIFDITPMGWYRQTPGKQREVVADLTSRGTTNYADSVKGRFTISRDNAKKMLYLQMNSLKSDDTGVYYCNVKRWGGIGWNDYWGQGTQVTVSS
notes: Tested as periplasmic extract in ELISA; also called Nb40
B6: Nanobody 41 (CA4441) (VHH)
VHH: QVQLQESGGGLVQSGGSLRLSCVASGFRFSNFPMMWVRQAPGKGLEWVSLISIGGSTTNYADSVKGRFTISRDNAKNTLFLQMNSLKPEDTAVYYCAKYLGRLVPPTTEGQGTQVTVSS
notes: Tested as periplasmic extract in ELISA; also called Nb41

What follows are binders tested against T1, agonist-bound β2AR-356 reconstituted at high density into phospholipid vesicles (UniProt P07550 1-365) (assay: ELISA on purified receptor alone).
T1 construct: Solid phase coated on Maxisorb plates for ELISA; also called purified receptor alone; reconstituted receptor alone
B1: no binding.
B2: no binding.
B3: no binding.
B4: no binding.
B5: no binding.
B6: no binding.
